In publication PMC3686713 one finds binding data, which are given here for two substances.

The test system of this data set is OmpR (phosphorylated with acetyl phosphate) (Yersinia pseudotuberculosis IP31758). Briefly: EMSA. For orientation: Mobility shift assays separate free from complexed probe on a gel.

On to T6SS-4 promoter, for which the binding was 40 nM.

ompF promoter yielded a binding of 20 nM.
